Measurements as given in US20060252692A1, “Inhibitors for use in hemostasis” (ZymoGenetics, Inc., priority 2002, published 2006).

Tests used:
[1] = test system: serotonin-contracted rat aortic sections; experiment: Relaxation of serotonin-induced rat aortic ring contractions; parameters: species or system Sprague-Dawley rats
Method: Male, Sprague-Dawley rats, approximately 3 months of age, were lightly anesthetized with CO2 and then decapitated. The thoracic aorta was then rapidly removed and placed in a modified Kreb's-Henseleit buffer (NaCl, 118.2 mM; KCl, 4.6 mM; CaCl2, 2.5 mM; MgSO4, 1.2 mM; NaHCO3, 24.8 mM; KH2PO4, 1.2 mM; and glucose, 10.0 mM). From each rat, four 2-3 mm aortic ring sections were cut after discarding the rough end of the aorta. In some experiments the endothelium was denuded, prior to cutting ring sections, by rubbing the lumen of the aorta along a 21 gauge needle. Denudation of the endothelium was verified by the addition of the acetylcholine analogue, carbachol, prior to determining zsig37 concentration-dependent responses.
The rings were fixed and connected to force displacement transducers in oxygenated (95% O2, 5% CO2), jacketed, glass organ baths kept at 30° C. in modified Kreb's-Henseleit buffer, pH 7.4. Resting tension was set at 1 gm, and continually re-adjusted to 1 gm over a one-hour incubation period. Fresh oxygenated modified Kreb's-Henseleit buffer was added to the baths every fifteen minutes during the resting incubation period. At the end of the one-hour incubation, the ring sections were contracted by the addition of 10 μM serotonin. After maximum contraction had been reached, approximately 15-20 minutes after the addition of the serotonin, cumulative concentration response curves for zsig37 were constructed. Zsig37 was added to 5 ml baths in volumes from 5 up to 150 μls, for final concentrations ranging from 1 ng/ml up to 40 μg/ml. Viability of the ring sections was verified at the end of the concentration response by the addition of forskolin (2.5 μM or 25 μM) or nitroglycerin (22 μM).

[2] = test system: RAW 264.7 (ATCC No. CRL-2278); experiment: Binding of zsig37 to RAW 264.7 monocyte/macrophage line; conditions: mouse monocyte/macrophage line
Text: This could potentially result in zsig37 involvement in monocyte phagocytosis, microbial killing, and cellular cytotoxicity. Following the two days in culture, there are macrophages present in the culture and zsig37 may be binding preferentially to this subset of cells. Zsig37 also bound to a mouse monocyte/macrophage line, RAW 264.7 (ATCC No. CRL-2278), indicating macrophage specificity.

template bleeding time = test system: template bleeding time; parameters: species or system Macaca fascicularis; conditions: cynomolgus monkey, in vivo
Text: In order to evaluate one aspect of the safety of zsig37 and its effect on template bleeding time, a pre-clinical model in Macaca fascicularis was used. Time to cessation of bleeding from standardized incisions on the animal's forearm, a procedure previously described by Wu, et al., Blood, 2002, 99:3623-3628, was employed to assess the effect of zsig37 on bleeding.
Methods. Five female and twelve male, Macaca fascicularis weighing 2.3 to 4.6 kg were used as test subjects on this project. The animals were immobilized with ketamine hydrochloride (Phoenix Scientific) administered intramuscularly at approximately 10 mg/kg. Each animal was examined, and the animal determined to be acceptable for the study. The right forearm, abdomen, ventral neck and inguinal area were shaved free of hair. The animal was transported to the surgical suite (University of Washington Regional Primate Research Center), positioned inside a heated air circulation system and placed onto isoflurane (Abbott Laboratories) inhalation anesthesia delivered through positive pressure ventilation via an endotracheal tube. […] The time to cessation of bleeding was determined and recorded for each animal. Bleeding times were determined for each animal prior to any treatment, after low molecular weight heparin (Lovenox™, Rhone Polenc, Inc.) treatment and after zsig37 treatment.

platelets in whole blood = experiment: Whole blood platelet activation (Lumi-Aggregometer); assay type: cell-based, human
Method: Blood was drawn from healthy volunteers into tubes containing sodium citrate, maintained at room temperature, and used within four hours of drawing. Whole blood was analyzed for platelet activation using a Chrono-Log 560A Whole Blood Lumi-Aggregometer (Chrono-Log Corp.; Haverton, Pa.) according to manufacturer's instructions. For each test point, 500 μl of blood were added to a reaction tube containing a stir bar and 500 μl of isotonic saline containing zsig37 at concentrations from 0 to 20 μg/ml. The mixture was incubated for four minutes followed by platelet activation initiated by the addition of 5 μl of 1 mg/ml cross-linked collagen (Chrono-Log Corp.) to the blood/zsig37 mixture. Inhibition of activation by ADP (final concentration 10 μM), and thrombin (final concentration lU/ml) were tested in a similar way.

DA-1 cells = experiment: Proliferation assay on zsig37-coated plates, DA-1; assay type: cell-based, mouse; conditions: 5,000 cells/well
Method: A second assay was performed with TF-1, DA-1, an IL-3 dependent cell line derived from the lymph node of a mouse with a B-cell lymphoma by outgrowth in IL-3 media, pre-B (p53−/− mouse marrow cells, IL-7 dependent, B220+, Thy1 low, Sca-1+), and A7BaF-3 cell lines as described above at 5,000 cells/well. BHK cells were also plated at 500 cells/well.

binding to RAW 264.7 [2]: bound
B1: zsig37: adipocyte complement related protein homolog, polypeptide of SEQ ID NO:2, inhibits collagen-mediated platelet activation and the complement pathway (protein, listed as Homo sapiens)
chain: MGSRGQGLLLAYCLLLAFASGLVLSRVPHVQGEQQEWEGTEELPSPPDHAERAEEQHEKYRPSQDQGLPASRCLRCCDPGTSMYPATAVPQINITILKGEKGDRGDRGLQGKYGKTGSAGARGHTGPKGQKGSMGAPGERCKSHYAAFSVGRKKPMHSNHYYQTVIFDTEFVNLYDHFNMFTGKFYCYVPGLYFFSLNVHTWNQKETYLHIMKNEEEVVILFAQVGDRSIMQSQSLMLELREQDQVWVRLYKGERENAIFSEELDTYITFSGYLVKHATEP
time to plateau of relaxation response after addition [1]: 3 to 5 min
time to relaxation after addition of each concentration [1]: 30 to 60 s
concentration at which relaxation was first observed ([1]; 10 μM serotonin): above 100 ng/ml
vasorelaxation of serotonin-contracted aortic sections ([1]; 10 μM serotonin, with and without an intact endothelium, 1 ng/ml up to 40 μg/ml): concentration-dependent vasorelaxation
template bleeding time vs control (1.0 mg/kg BSA) (template bleeding time): not statistically different
effect on platelet activation stimulated by ADP (platelets in whole blood; ADP final concentration 10 μM): no effect
inhibition of collagen-mediated platelet activation (platelets in whole blood; cross-linked collagen, zsig37 0 to 20 μg/ml): dose dependent relationship between 5 and 20 μg/ml
effect on platelet activation stimulated by thrombin (platelets in whole blood; thrombin): no effect
growth of DA-1 cells (DA-1 cells): slightly inhibited growth
